The source of these data is the supplement of paper PMC7125110.

First the molecules themselves.
B1: glmS ribozyme (parent)
chain: AUAAAAGCGCCAGAACUACAGAAAUGUAGUUGACGAGGAGGAGGUUUAUCGAAUUUUCGGCGGAUGCCUCCAAA

Common to all, as to details: with glucosamine-6-phosphate
Series [1] covers variants of B1. The series can be described thus: kcat; higher = faster cleavage; RNA array. Put shortly:
(§1)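 In situ transcription by E. coli RNA polymerase produced barcoded ribozyme variants on sequenced MiSeq chips, and a hybridised Cy3 probe tracked them at 37 °C. Glucosamine-6-phosphate was flowed in at 40 μM to 10 mM in HEPES/KCl/Mg(OAc)2 buffer. kcat and KM were taken from weighted Michaelis–Menten fits of kobs values from exponential decay fits.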

The variants in series [2] derive from B1. The series can be described thus: KM; higher = weaker cofactor use; RNA array. Put shortly:
as §1

Variants of B1 are the subject of series [3]. Kind of series: self-cleavage kobs at 40 uM GlcN6P; higher = faster cleavage; RNA array. Put shortly: as §1
Variants of B1 are the subject of series [4]. The series can be described thus: self-cleavage kobs at 160 uM GlcN6P; higher = faster cleavage; RNA array. Put shortly:
as §1

In series [5] the parent is B1. Kind of series: self-cleavage kobs at 640 uM GlcN6P; higher = faster cleavage; RNA array. Put shortly:
as §1

In series [6] the parent is B1. Kind of series: self-cleavage kobs at 2500 uM GlcN6P; higher = faster cleavage; RNA array. Put shortly:
as §1

The variants in series [7] derive from B1. Kind of series: self-cleavage kobs at 10000 uM GlcN6P; higher = faster cleavage; RNA array. Put shortly:
as §1

± gives the standard error. For some assays here: Fewer inactive variants are shown than the library holds.

On to A14U G66A, for which, in the series with glucosamine-6-phosphate [1], the catalytic constant (kcat) (usually the number of substrate molecules converted per active site and unit of time at saturation) was 0.00402 ± 0.0012 s⁻¹. In the series with glucosamine-6-phosphate [2], the KM (in general, the concentration of substrate that gives half-maximal velocity) came out at 2120 ± 870 µM. In addition, the “self-cleavage kobs at 40 uM GlcN6P” value with glucosamine-6-phosphate [3] is 0.000107 ± 1.8e-05 s⁻¹. Also, in the series with glucosamine-6-phosphate [4], the “self-cleavage kobs at 160 uM GlcN6P” value stood at 0.000254 ± 3.9e-05 s⁻¹. In addition, the “self-cleavage kobs at 640 uM GlcN6P” value in the series with glucosamine-6-phosphate [5] is 0.00104 ± 0.00029 s⁻¹. For the same variant, the “self-cleavage kobs at 2500 uM GlcN6P” value with glucosamine-6-phosphate [6] was 0.00172 ± 0.0003 s⁻¹. Moreover, the “self-cleavage kobs at 10000 uM GlcN6P” value with glucosamine-6-phosphate [7] worked out at 0.00403 ± 0.00059 s⁻¹.

As to G51U G60C, the kcat with glucosamine-6-phosphate [1] worked out at 1.97e-05 ± 5.9e-06 s⁻¹.

As for U55G U57C, the kcat with glucosamine-6-phosphate [1] worked out at 0.000252 ± 3.3e-05 s⁻¹. In addition, the KM in the series with glucosamine-6-phosphate [2] is 4830 ± 1100 µM. Besides, the “self-cleavage kobs at 40 uM GlcN6P” value with glucosamine-6-phosphate [3] is < 1e-05 s⁻¹. Further, in the series with glucosamine-6-phosphate [5], the “self-cleavage kobs at 640 uM GlcN6P” value came out at 3.51e-05 ± 1e-05 s⁻¹. Further, the “self-cleavage kobs at 2500 uM GlcN6P” value with glucosamine-6-phosphate [6] came out at 7.83e-05 ± 1.6e-05 s⁻¹. In addition, the “self-cleavage kobs at 10000 uM GlcN6P” value with glucosamine-6-phosphate [7] stood at 0.000174 ± 2.6e-05 s⁻¹.

C50U C67U: the kcat with glucosamine-6-phosphate [1] turned out to be 2.42e-05 ± 5.8e-06 s⁻¹. Besides, the “self-cleavage kobs at 2500 uM GlcN6P” value in the series with glucosamine-6-phosphate [6] is 3.69e-05 ± 1.4e-05 s⁻¹.

Consider C10U C61U G63A, for which, in the series with glucosamine-6-phosphate [1], the kcat was < 1e-05 s⁻¹. For the same variant, in the series with glucosamine-6-phosphate [7], the “self-cleavage kobs at 10000 uM GlcN6P” value is < 1e-05 s⁻¹.

Regarding A1G G37U, in the series with glucosamine-6-phosphate [1], the kcat came out at 1.48e-05 ± 2.9e-06 s⁻¹. The “self-cleavage kobs at 640 uM GlcN6P” value in the series with glucosamine-6-phosphate [5] is < 1e-05 s⁻¹.

For A52G C67A, the catalytic constant (kcat) in the series with glucosamine-6-phosphate [1] was 0.000584 ± 5.9e-05 s⁻¹. Besides, in the series with glucosamine-6-phosphate [2], the KM worked out at 1300 ± 300 µM. Further, the “self-cleavage kobs at 160 uM GlcN6P” value in the series with glucosamine-6-phosphate [4] stood at 7.46e-05 ± 2e-05 s⁻¹. In addition, the “self-cleavage kobs at 640 uM GlcN6P” value in the series with glucosamine-6-phosphate [5] is 0.000199 ± 3.2e-05 s⁻¹. For the same variant, the “self-cleavage kobs at 2500 uM GlcN6P” value in the series with glucosamine-6-phosphate [6] stood at 0.000301 ± 8.4e-05 s⁻¹. In addition, in the series with glucosamine-6-phosphate [7], the “self-cleavage kobs at 10000 uM GlcN6P” value was 0.000533 ± 5.6e-05 s⁻¹.

As to A6C U54C, in the series with glucosamine-6-phosphate [1], the catalytic constant (kcat) was determined as 0.000106 ± 1.8e-05 s⁻¹. The KM in the series with glucosamine-6-phosphate [2] amounted to 2090 ± 1000 µM. Further, the “self-cleavage kobs at 2500 uM GlcN6P” value in the series with glucosamine-6-phosphate [6] was 6.36e-05 ± 1e-05 s⁻¹. The “self-cleavage kobs at 10000 uM GlcN6P” value in the series with glucosamine-6-phosphate [7] was 8.4e-05 ± 1.4e-05 s⁻¹.

Regarding A52G G62A, in the series with glucosamine-6-phosphate [1], the kcat came out at 2.22e-05 ± 9.7e-06 s⁻¹. Moreover, the “self-cleavage kobs at 160 uM GlcN6P” value in the series with glucosamine-6-phosphate [4] was < 1e-05 s⁻¹. The “self-cleavage kobs at 10000 uM GlcN6P” value with glucosamine-6-phosphate [7] was < 1e-05 s⁻¹.

In the case of A15C U55G C70A, in the series with glucosamine-6-phosphate [1], the kcat was 4.71e-05 ± 9.2e-06 s⁻¹. The “self-cleavage kobs at 640 uM GlcN6P” value with glucosamine-6-phosphate [5] was 5.4e-05 ± 1.4e-05 s⁻¹. Further, in the series with glucosamine-6-phosphate [6], the “self-cleavage kobs at 2500 uM GlcN6P” value came to 4.46e-05 ± 1.3e-05 s⁻¹. Further, the “self-cleavage kobs at 10000 uM GlcN6P” value with glucosamine-6-phosphate [7] stood at 3.54e-05 ± 1.7e-05 s⁻¹.

Turning to C67A, the kcat with glucosamine-6-phosphate [1] was determined as 0.0168 ± 0.0027 s⁻¹. Also, the KM with glucosamine-6-phosphate [2] turned out to be 1730 ± 380 µM. For the same variant, the “self-cleavage kobs at 40 uM GlcN6P” value with glucosamine-6-phosphate [3] turned out to be 0.000434 ± 1.5e-05 s⁻¹. The “self-cleavage kobs at 160 uM GlcN6P” value in the series with glucosamine-6-phosphate [4] stood at 0.00132 ± 8.4e-05 s⁻¹. The “self-cleavage kobs at 640 uM GlcN6P” value with glucosamine-6-phosphate [5] was 0.004 ± 0.00015 s⁻¹. In addition, the “self-cleavage kobs at 2500 uM GlcN6P” value with glucosamine-6-phosphate [6] is 0.0101 ± 0.00044 s⁻¹. The “self-cleavage kobs at 10000 uM GlcN6P” value with glucosamine-6-phosphate [7] is 0.0155 ± 0.00076 s⁻¹.

On to G43A U55A, for which the kcat with glucosamine-6-phosphate [1] is 0.00026 ± 7.6e-05 s⁻¹. Moreover, in the series with glucosamine-6-phosphate [7], the “self-cleavage kobs at 10000 uM GlcN6P” value was 8.23e-05 ± 1.2e-05 s⁻¹.

Take U30C U46C C50U U69C: in the series with glucosamine-6-phosphate [1], the turnover number (kcat) stood at 1.66e-05 ± 5e-06 s⁻¹.

On to G29A G60C, for which, in the series with glucosamine-6-phosphate [1], the kcat was < 1e-05 s⁻¹. Further, the “self-cleavage kobs at 640 uM GlcN6P” value with glucosamine-6-phosphate [5] was < 1e-05 s⁻¹. The “self-cleavage kobs at 10000 uM GlcN6P” value with glucosamine-6-phosphate [7] is < 1e-05 s⁻¹.

Regarding U55G A64C, the kcat with glucosamine-6-phosphate [1] worked out at 0.000152 ± 1.4e-05 s⁻¹. Also, the KM with glucosamine-6-phosphate [2] amounted to 1210 ± 350 µM. The “self-cleavage kobs at 640 uM GlcN6P” value with glucosamine-6-phosphate [5] worked out at 5.93e-05 ± 1.7e-05 s⁻¹. For the same variant, in the series with glucosamine-6-phosphate [6], the “self-cleavage kobs at 2500 uM GlcN6P” value came to 9.39e-05 ± 1.5e-05 s⁻¹. Further, the “self-cleavage kobs at 10000 uM GlcN6P” value in the series with glucosamine-6-phosphate [7] came to 0.000143 ± 2e-05 s⁻¹.

With G37C U45A, the kcat in the series with glucosamine-6-phosphate [1] worked out at 0.00017 ± 2.9e-05 s⁻¹. Moreover, the KM with glucosamine-6-phosphate [2] came out at 5840 ± 1900 µM. Besides, in the series with glucosamine-6-phosphate [5], the “self-cleavage kobs at 640 uM GlcN6P” value came out at 2.56e-05 ± 1.3e-05 s⁻¹. In addition, the “self-cleavage kobs at 2500 uM GlcN6P” value with glucosamine-6-phosphate [6] is 4.81e-05 ± 9.9e-06 s⁻¹. Further, in the series with glucosamine-6-phosphate [7], the “self-cleavage kobs at 10000 uM GlcN6P” value amounted to 0.000109 ± 1.6e-05 s⁻¹.

As for C10U A14C U30A G35A G38A, in the series with glucosamine-6-phosphate [1], the kcat was < 1e-05 s⁻¹.

Take U30A G40U: in the series with glucosamine-6-phosphate [1], the catalytic constant (kcat) turned out to be 0.000556 ± 6.4e-05 s⁻¹. Moreover, the Michaelis constant (KM) with glucosamine-6-phosphate [2] is 2160 ± 580 µM. Also, in the series with glucosamine-6-phosphate [5], the “self-cleavage kobs at 640 uM GlcN6P” value is 0.000117 ± 3e-05 s⁻¹. The “self-cleavage kobs at 2500 uM GlcN6P” value with glucosamine-6-phosphate [6] came out at 0.000367 ± 9e-05 s⁻¹. The “self-cleavage kobs at 10000 uM GlcN6P” value in the series with glucosamine-6-phosphate [7] was 0.000446 ± 6.3e-05 s⁻¹.

Regarding G51A A53G, the kcat in the series with glucosamine-6-phosphate [1] turned out to be 1.13e-05 ± 5.2e-06 s⁻¹.

U30G U31G: the kcat with glucosamine-6-phosphate [1] was 0.0304 ± 0.012 s⁻¹. The “self-cleavage kobs at 40 uM GlcN6P” value with glucosamine-6-phosphate [3] turned out to be 0.00149 ± 0.00022 s⁻¹. Further, the “self-cleavage kobs at 640 uM GlcN6P” value with glucosamine-6-phosphate [5] worked out at 0.0102 ± 0.0017 s⁻¹. Also, the “self-cleavage kobs at 10000 uM GlcN6P” value with glucosamine-6-phosphate [7] was 0.036 ± 0.0081 s⁻¹.
